Experimental findings from paper PMC12103069 are described below.

The target of the assay is GST-MuRF1 (MuRF1 full length, TRIM63) (Rattus norvegicus). Briefly: other fluorescence titration; change in the initial fluorescence of dye-labelled GST-MuRF (10 nM, constant) with a 16-sample serial dilution of the E2; MonolithX (NanoTemper), premium capillaries, 100% MST power, 25 °C; 50 mM HEPES pH 7.4, 150 mM NaCl, 0.005% Tween20, 0.1% dextran.
Sequence of GST-MuRF1 (MuRF1 full length, TRIM63) (Rattus norvegicus) (Q91Z63 whole entry): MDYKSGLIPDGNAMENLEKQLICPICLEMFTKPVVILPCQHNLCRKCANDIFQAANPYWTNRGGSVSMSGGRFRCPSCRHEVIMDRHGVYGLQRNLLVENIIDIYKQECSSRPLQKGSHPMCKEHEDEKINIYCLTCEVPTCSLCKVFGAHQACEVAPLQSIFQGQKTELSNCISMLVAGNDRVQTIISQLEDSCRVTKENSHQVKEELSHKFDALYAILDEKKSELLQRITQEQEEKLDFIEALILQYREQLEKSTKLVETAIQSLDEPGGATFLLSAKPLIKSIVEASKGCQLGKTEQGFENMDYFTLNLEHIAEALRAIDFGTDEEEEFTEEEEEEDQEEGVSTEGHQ

For “UBE2J2 cytosolic part K26A (from UniProt Q6P073 1-259) (domain or fragment)”, the Kd was 26 µM.
For the substance “UBE2J2 cytosolic part N6A,R8A (from UniProt Q6P073 1-259) (domain or fragment)”, the Kd came to 8.9 µM.
In turn, “UBE2J2 cytosolic part P10A,T11A (from UniProt Q6P073 1-259) (domain or fragment)” displayed a Kd of 10.3 µM.
